Experimental findings from article PMC7057996, “Human glutaredoxin-1 can transfer copper to isolated metal binding domains of the P1B-type ATPase, ATP7B” (Scientific Reports, 2020) are described below.

Assay [1] deals with T1, ATP7B metal binding domains 5-6 (human, UniProt P35670 486-633).
T1 construct: Unlabelled apo protein in the NMR titrations; Cloned in pET-24d; also called WLN5-6; ATP7B MBDs 5-6; source: E. coli BL21 Codon Plus (DE3), purified (anion exchange, SEC)
T1 sequence (looked up): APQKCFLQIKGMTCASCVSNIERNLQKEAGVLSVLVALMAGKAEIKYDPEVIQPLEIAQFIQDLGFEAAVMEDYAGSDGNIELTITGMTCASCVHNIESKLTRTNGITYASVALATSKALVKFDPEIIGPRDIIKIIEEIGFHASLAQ
Description: NMR titration; 15N-1H HSQC of apo-15N-hGrx1 (320-350 uM) titrated with unlabelled apo-Atox1 or apo-WLN5-6 to 2.0:1 (partner:hGrx1); no Cu; 4 °C; 10 mM MES/Na, 50 mM NaCl, 1 mM TCEP, pH 6.0; intensity changes of the Cys26 and Thr69 peaks fitted to a 1:1 binding model. The note with it: both partners purified.

In assay [2] the target is T1, ATP7B metal binding domains 5-6. Description: cell-based or functional assay.

B1: human glutaredoxin-1 (enzyme)
chain: MAQEFVNCKIQPGKVVVFIKPTCPYCRRAQEILSQLPIKQGLLEFVDITATNHTNEIQDYLQQLTGARTVPRVFIGKDCIGGCSDLVSLQQSGELLTRLKQIGALQ
notes: human glutaredoxin-1 (hGrx1), UniProtKB P35754; printed as a 106-residue construct (excluding non-native residues left at the N-terminus by cleavage); 15N-labelled (or 13C/15N-labelled) for NMR; used as apo protein and loaded with Cu(I) (1:1); Non-native residues of the PreScission site remain at the N-terminus; also called hGrx1; Grx1; source: E. coli BL21 Codon Plus (DE3), purified (glutathione …)
As for B1, the affinity in assay [1], expressed as Kd, was 7 ± 4 µM. Besides, the “Cu(I) distribution WLN5-6:hGrx1/Atox1 after incubation of Cu(I)-hGrx1 with apo-Atox1 and apo-WLN5-6 at 1:1:1, SEC-ICP-MS” value in assay [2] was ~9 ratio WLN5-6:hGrx1/Atox1.
